Test results from publication doi:10.1101/2025.07.27.667015v3 (biorxiv, 2025).
pKd: −log10 of the molar value.

Key:
yMGL [1] = molecular target: yMGL (Yarrowia lipolytica, UniProt Q6CB42); assay: OpenSPR, protein immobilised on NTA chip; format: binding
yMGL [2] = molecular target: yMGL (Yarrowia lipolytica, UniProt Q6CB42, S333A); assay: OpenSPR, protein immobilised on NTA chip; format: binding
CSCC[C@H](N)C(=O)O = assay: purified protein; settings: saturating PLP (5 μM), 50 mM Tris-HCl pH 8.0, 20 °C

Cc1ncc(COP(=O)(O)O)c(C=O)c1O [PLP]
pKd (yMGL [1]): 4.48 | pKd (yMGL [2]): 3.03

yMGL (Yarrowia lipolytica CLIB122)
Km (CSCC[C@H](N)C(=O)O): 1500 ± 10 µM | kcat (CSCC[C@H](N)C(=O)O): 0.06 ± 0.00 s⁻¹

yMGL-ΔCTD (Yarrowia lipolytica CLIB122; DEL253-380)
Km (CSCC[C@H](N)C(=O)O): 750 ± 10 µM | kcat (CSCC[C@H](N)C(=O)O): 0.04 ± 0.00 s⁻¹
